B1: #29 (scFv)
scFv (VL-linker-VH-His/HA tag): QSVLTQPPSVSAAPRQKVTISCSGSSSNIGNNYVSWYQQLPGTAPKLLIYDDNKRPSGIPDRFSGSKSGTSATLGITGLQTGDEADYYCGTWDSSLSAVVFGGGTKLTVLGSRGGGGSGGGGSGGGGSLEMAQVQLVQSGTEVKRAGASVKVSCKASGYTFTNYYMHWVRQAPGQGLEWMGIINPSIGSTNYAQKFQGRVTMTRDTSTSTVFMELSSLRSDDTAVYYCARSFGDSDGADSWGQGTLVTVSSTSGQAGQHHHHHHGAYPYDVPDYAS
notes: also called EXT017-29; EXT017-29 scFv phage clone
B2: #34 (scFv)
scFv (VL-linker-VH-His/HA tag): QSALTQPPSASGSPGQSVTISCTGTSSDVGAYNYVSWYQHYPGKAPKLMIYEVSERPSGVPDRFSGSKSGNTASLTVSGLQAEDEADYFCSSYAGSNNFVFGTGTKVTVLGSRGGGGSGGGGSGGGGSLEMAEVQLVQSGAEVKKPGSSVKVSCKASGGTFSSYAISWVRQAPGQGLEWMGRIIPILGIANYAQKFQGRVTITADKSSSTAYMALSSLTSEDTAVYYCARGGDYVESWFDPWGQGTLVTVSSTSGQAGQHHHHHHGAYPYDVPDYAS
notes: also called EXT017-34; EXT017-34 scFv phage clone
B3: #55 (scFv)
scFv (VL-linker-VH-His/HA tag): QSALTQPASVSGSPGQSITISCTGPTSDFNDYLFVSWYQQHPGKAPKLILYDVTHRPSGVSGRFSGSKSASTASLTISGLQAEDEADYFCGSKTGRTTYVFGTGTKVTVLGSRGGGGSGGGGSGGGGSLEMAQVQLVQSGAEVKKPGASVKVSCKASGYTFDNFGISWVRQAPGQGLEWMGWINTYDGYTNYVEKLQGRVTMTTDTSTGTAYMELRGLRSDDTAVYYCARSVPHQISYGDLWGQGTLVTVSSTSGQAGQHHHHHHGAYPYDVPDYAS
notes: also called EXT017-55; EXT017-55 scFv phage clone
B4: EXT017-32 scFv phage clone (scFv)
scFv: QSVLTQPPSVSVAPGKTARITCGGNNIGSKSVHWYQQKPGQAPVLVIYYDSDRPSGIPERFSGSNSGNTATLTISRVEAGDEADYYCQVWDSSSDHYVFGTGTKVTVLGSRGGGGSGGGGSGGGGSLEMAEVQLVESGGGVVQPGRSLRLSCAASGFTFNNHAMHWVRQAPGKGLEWVAVISFDGDDKFYADSVKGRFTISRDNSRNTLFLQMNNLRPEDTAVYYCSRDPYHFASGSYSYFDYWGQGTLVTVSSTSGQAGQHHHHHHGAYPYDVPDYAS
notes: also called EXT017-32 phage; phage clone #32
B5: EXT017-11 scFv phage clone (scFv)
scFv: NFMLTQPHSVSESPGKTVTISCTRSSGSIASNYVQWYQQRPGSAPTTVIYEDNQRPSGVPDRFSGSIDSSSNSASLTISGLKTEDEADYYCQSYDTNNYGVIFGGGTKLTVLGSRGGGGSGGGGSGGGGSLEMAQMQLVQSGAEVKKPGASVKVSCKTSGYTFNNYYMHWVRQAPGQGLEWMGIINPSGGSTNYAQKFQGRVTMTRDTSTSTVYMELSSLRSEDTAVYYCARSFDKQDIDYWGQGTLVTVSSTSGQAGQHHHHHHGAYPYDVPDYAS
notes: also called phage clone #11
B6: EXT017-54 scFv phage clone (scFv)
scFv: QAVLTQPPSLSGGPRQRVTISCSGSTSNIGKNGVSWYQQLPGKAPKLLIYNDHLLSSGVSDRFSGSKSGTSASLAISGLQSDDEADYYCATWDDTLDLPLFGGGTKVTVLGSRGGGGSGGGGSGGGGSLEMAQMQLVQSGAEVEKPGASVKLSCKASGGTFSSYAISWVRQAPGQGLEWMGGIIPIFGTANYAQKFQGRVTITADESTSTAYMELSSLRSEDTAVYYCARPSYYSIKSAWDHWGQGTLVTVSSTSGQAGQHHHHHHGAYPYDVPDYAS
notes: full-length scFv with His+HA tags; also called EXT017-54 phage
B7: #25 (scFv)
scFv (VL-linker-VH-His/HA tag): QSVLTQPPSVSAAPGQKVTISCSGSSSNIGNNYVSWYQFLPGTAPKLLIYDNNQRPSGIPDRFSGFKSGTSATLDITGLQTGDEADYYCGTWDNSLSAAVFGRGTKLTVLGSRGGGGSGGGGSGGGGSLEMAQMQLVQSGTEVKRAGASVKVSCKASGYTFTNYYMHWVRQAPGQGLEWMGIINPSGGSTTYAQKFQGRVTMTRDTSTSTVYMELSDLGSEDTAVYYCARSWSKTEGSDRWGQGTLVTVSSTSGQAGQHHHHHHGAYPYDVPDYAS
notes: also called EXT017-25; EXT017-25 scFv phage clone
B8: EXT017-21 scFv phage clone (scFv)
scFv: SYELTQPPSVSVAPGQTASMTCGGNNIGSKSVHWYQQKPSQAPVMVVHDDSERPSGIPERISGSKSGNTATLTISRVEAGDEADYYCQVWDSSSDHVIFGGGTKLTVLGSRGGGGSGGGGSGGGGSLEMAQVQLVQSGAEVKKPGASVKVSCKASGYTFTNYYIHWVRQAPGQGLEWMGIIRPSGGITNYAQKFQGRVSMTRDTSTSTVYMELSSLRSEDTAVYYCARSWMSDSYYDGWGQGTLVTVSSTSGQAGQHHHHHHGAYPYDVPDYAS
notes: also called phage clone #21

How the values were obtained:
[1] = biological target: T1, HLA-A*02:01 on T2 cells alone (no peptide added) (human); assay: flow cytometry, phage on T2 without peptide
T1 construct: TAP-deficient T2 cells without pulsed peptide; negative control target, and the HLA molecule whose stabilisation by peptides is read in the T2 stabilization assay; also called HLA-A*02 molecule; HLA-A2 molecule

[2] = biological target: T1, HLA-A*02:01 on T2 cells alone (no …); assay: flow cytometry, phage on T2 without peptide; secondary only 320, unstained 91.4
[3] = biological target: T2, Foxp3-7 peptide/HLA-A*02:01 complex on the cell surface (human); assay: flow cytometry, phage on T2 + Foxp3-7 peptide; secondary only 318, unstained 95.8
T2 construct: also called Foxp3-7/HLA-A2 complex

T2+EW [4] = biological target: T3, T2+EW (Homo sapiens, UniProt A*02:01); assay: flow cytometry, phage on T2 + EW peptide; secondary only 310, unstained 93
T3 construct: on the surface of T2 cells; irrelevant control peptide; also called EW peptide/HLA-A*02:01 complex on T2 cells; T2 pulsed with EW peptide

[5] = biological target: T1, HLA-A*02:01 on T2 cells alone (no …); assay: flow cytometry, phage on T2 cells
[6] = biological target: T1, HLA-A*02:01 on T2 cells alone (no …); assay: flow cytometry, phage on T2 cells, no peptide
[7] = biological target: T2, Foxp3-7 peptide/HLA-A*02:01 complex on …; assay: flow cytometry, phage on peptide-loaded T2 cells
[8] = biological target: T4, 017-mut9 peptide (…)/HLA-A*02:01 complex on T2 cells (human); assay: flow cytometry, phage on peptide-loaded T2 cells
T4 construct: Alanine mutant at position 9

[9] = biological target: T5, 017-mut1 peptide (…)/HLA-A*02:01 complex on T2 cells (human); assay: flow cytometry, phage on peptide-loaded T2 cells
T5 construct: Alanine mutant of Foxp3-7 at position 1, pulsed onto T2 cells; also called EXT017-mut1

[10] = biological target: T6, 017-mut2 peptide (…)/HLA-A*02:01 complex on T2 cells (human); assay: flow cytometry, phage on peptide-loaded T2 cells
T6 construct: Alanine mutant at position 2, the anchor position; the peptide may load poorly onto HLA-A2; also called EXT017-mut2

[11] = biological target: T7, 017-mut3 peptide (…)/HLA-A*02:01 complex on T2 cells (human); assay: flow cytometry, phage on peptide-loaded T2 cells
T7 construct: Alanine mutant at position 3

[12] = biological target: T8, 017-mut4 peptide (…)/HLA-A*02:01 complex on T2 cells (human); assay: flow cytometry, phage on peptide-loaded T2 cells
T8 construct: Alanine mutant at position 4

[13] = biological target: T9, 017-mut5 peptide (…)/HLA-A*02:01 complex on T2 cells (human); assay: flow cytometry, phage on peptide-loaded T2 cells
T9 construct: Alanine mutant at position 5

[14] = biological target: T10, 017-mut7 peptide (…)/HLA-A*02:01 complex on T2 cells (human); assay: flow cytometry, phage on peptide-loaded T2 cells
T10 construct: Alanine mutant at position 7

[15] = biological target: T11, 017-mut8 peptide (…)/HLA-A*02:01 complex on T2 cells (human); assay: flow cytometry, phage on peptide-loaded T2 cells
T11 construct: Alanine mutant at position 8; also called TLI-A8

[16] = biological target: T12, R3 (RHAMM-R3) peptide/HLA-A*02:01 complex on T2 cells (human); assay: flow cytometry, phage on T2 + R3 peptide; secondary only 123, unstained 99.8
T12 construct: Control target of the phage staining of T2 cells; also called T2 cells pulsed with R3 peptide; RHAMM 3 (R3)

[17] = biological target: T1, HLA-A*02:01 on T2 cells alone (no …); assay: flow cytometry, phage on T2 without peptide; secondary only 121, unstained 106
[18] = biological target: T2, Foxp3-7 peptide/HLA-A*02:01 complex on …; assay: flow cytometry, phage on T2 + Foxp3-7 peptide; secondary only 116, unstained 93.8
[19] = biological target: T2, Foxp3-7 peptide/HLA-A*02:01 complex on …; assay: flow cytometry, phage on T2 + Foxp3-7 peptide; secondary only 104, unstained 81.7
[20] = biological target: T12, R3 (RHAMM-R3) peptide/HLA-A*02:01 …; assay: flow cytometry, phage on T2 + R3 peptide (as the table names the samples); secondary only 109, unstained 80.9
[21] = biological target: T1, HLA-A*02:01 on T2 cells alone (no …); assay: flow cytometry, phage on T2 without peptide; secondary only 100, unstained 99.5
[22] = biological target: T2, Foxp3-7 peptide/HLA-A*02:01 complex on …; assay: flow cytometry, phage on T2 + Foxp3-7 peptide; secondary only 133, unstained 103
T2+EW [23] = biological target: T3, T2+EW; assay: flow cytometry, phage on T2 + EW peptide; secondary only 113, unstained 94.7

| Binder | binding result [1] | Median:FITC-A [2] | Median:FITC-A [3] | Median:FITC-A (T2+EW [4]) | binding result [5] | Median:FITC-A [16] | Median:FITC-A [17] | Median:FITC-A [18] | Median:FITC-A [19] | Median:FITC-A [20] | also measured |
| --- | --- | --- | --- | --- | --- | --- | --- | --- | --- | --- | --- |
| B1 | no binding | 369 | 1010 | 359 |  |  |  |  |  |  |  |
| B2 | no binding | 361 | 1050 | 386 |  |  |  |  |  |  |  |
| B3 | no binding | 389 |  | 391 |  |  |  |  |  |  |  |
| B4 |  | 356 | 1640 | 357 | no binding | 136 | 138 | 4070 | 3840 | 123 | MFI [6]: 91.8; MFI [7]: 27500; MFI [8]: 93.6; MFI [9]: 15100; MFI [10]: 103; MFI [11]: 21000; MFI [12]: 20800; MFI [13]: 2710; MFI [14]: 99.6; MFI [15]: 96.7 |
| B5 |  |  |  |  | no binding | 144 | 143 | 454 | 2620 | 119 | Median:FITC-A [21]: 142; Median:FITC-A [22]: 1690; Median:FITC-A (T2+EW [23]): 143 |
| B6 | no binding | 343 | 732 | 364 |  |  |  |  | 4370 | 122 | MFI [6]: 89.9; MFI [7]: 30400; MFI [8]: 3540; MFI [9]: 23500; MFI [10]: 94.7; MFI [11]: 7780; MFI [13]: 91.2; MFI [14]: 91.1; MFI [15]: 5850 |
| B7 | no binding | 386 | 1030 | 375 |  |  |  |  |  |  |  |
| B8 |  |  |  |  | no binding | 143 | 147 | 428 | 2220 | 123 | Median:FITC-A [21]: 138; Median:FITC-A [22]: 1550; Median:FITC-A (T2+EW [23]): 143 |

From patent publication US20190284262A1 (Memorial Sloan Kettering, published 2019)
